Source: patent US20220047729A1

biological target: recombinant hPD-L2 hIgG1 Fc-fusion protein (R&D Systems) (human) (UniProt Q9BQ51); experiment: flow cytometry, HEK 293 cells displaying the PD-1 construct, one dose of hPD-L2 Fc fusion, percent of PD-1-positive cells bound
UniProt Q9BQ51, sequence (Q9BQ51 20-219 limits assumed): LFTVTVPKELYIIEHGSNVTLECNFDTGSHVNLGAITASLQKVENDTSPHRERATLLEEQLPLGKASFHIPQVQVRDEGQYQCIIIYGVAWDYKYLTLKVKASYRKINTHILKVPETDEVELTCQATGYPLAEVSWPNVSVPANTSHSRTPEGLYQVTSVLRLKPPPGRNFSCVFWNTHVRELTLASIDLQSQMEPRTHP

Compared with “human PD-1 mutant D77E (hPD-1 Type I mCherry, on HEK 293 cells) (from UniProt Q15116 25-168) (receptor)”, “human PD-1 mutant E84Y (hPD-1 Type I mCherry, on HEK 293 cells) (from UniProt Q15116 25-168) (receptor)” is lower in average binding normalized to wild type (AVE-hPD-L2) (relative to wild type): 1.13 for the first, 0.999 for the second.

First: human PD-1 mutant E136N (hPD-1 Type I mCherry, on HEK 293 cells) (from UniProt Q15116 25-168) (receptor)
Second: human PD-1 mutant E136Q (hPD-1 Type I mCherry, on HEK 293 cells) (from UniProt Q15116 25-168) (receptor)
The average binding normalized to wild type (AVE-hPD-L2) (relative to wild type) of the first is lower: 0.82 for the first, 0.967 for the second.

Compared with “human PD-1 mutant G124M (hPD-1 Type I mCherry, on HEK 293 cells) (from UniProt Q15116 25-168) (receptor)”, “human PD-1 mutant G124V (hPD-1 Type I mCherry, on HEK 293 cells) (from UniProt Q15116 25-168) (receptor)” is higher in average binding normalized to wild type (AVE-hPD-L2) (relative to wild type): 0.705 for the first, 1.16 for the second.

Compared with “human PD-1 mutant G124Y (hPD-1 Type I mCherry, on HEK 293 cells) (from UniProt Q15116 25-168) (receptor)”, “human PD-1 mutant I126V (hPD-1 Type I mCherry, on HEK 293 cells) (from UniProt Q15116 25-168) (receptor)” is higher in average binding normalized to wild type (AVE-hPD-L2) (relative to wild type): 0.557 for the first, 0.711 for the second.

Compared with “human PD-1 mutant I134D (hPD-1 Type I mCherry, on HEK 293 cells) (from UniProt Q15116 25-168) (receptor)”, “human PD-1 mutant I134F (hPD-1 Type I mCherry, on HEK 293 cells) (from UniProt Q15116 25-168) (receptor)” is higher in average binding normalized to wild type (AVE-hPD-L2) (relative to wild type): 0.0105 for the first, 1.11 for the second.

Going from “human PD-1 mutant I134N (hPD-1 Type I mCherry, on HEK 293 cells) (from UniProt Q15116 25-168) (receptor)” to “human PD-1 mutant I134Q (hPD-1 Type I mCherry, on HEK 293 cells) (from UniProt Q15116 25-168) (receptor)”, the average binding normalized to wild type (AVE-hPD-L2) (relative to wild type) falls from 0.0534 to 0.0252.

Going from “human PD-1 mutant I134T (hPD-1 Type I mCherry, on HEK 293 cells) (from UniProt Q15116 25-168) (receptor)” to “human PD-1 mutant K78R (hPD-1 Type I mCherry, on HEK 293 cells) (from UniProt Q15116 25-168) (receptor)”, the average binding normalized to wild type (AVE-hPD-L2) (relative to wild type) falls from 0.307 to 0.125.

Compared with “human PD-1 mutant K131H (hPD-1 Type I mCherry, on HEK 293 cells) (from UniProt Q15116 25-168) (receptor)”, “human PD-1 mutant L128V (hPD-1 Type I mCherry, on HEK 293 cells) (from UniProt Q15116 25-168) (receptor)” is lower in average binding normalized to wild type (AVE-hPD-L2) (relative to wild type): 1.58 for the first, 1.03 for the second.

Compared with “human PD-1 mutant L128W (hPD-1 Type I mCherry, on HEK 293 cells) (from UniProt Q15116 25-168) (receptor)”, “human PD-1 mutant N66E (hPD-1 Type I mCherry, on HEK 293 cells) (from UniProt Q15116 25-168) (receptor)” is lower in average binding normalized to wild type (AVE-hPD-L2) (relative to wild type): 1.03 for the first, 0.00438 for the second.

Going from “human PD-1 mutant N66Q (hPD-1 Type I mCherry, on HEK 293 cells) (from UniProt Q15116 25-168) (receptor)” to “human PD-1 mutant Q75N (hPD-1 Type I mCherry, on HEK 293 cells) (from UniProt Q15116 25-168) (receptor)”, the average binding normalized to wild type (AVE-hPD-L2) (relative to wild type) rises from 0.0105 to 1.13.

Compared with “human PD-1 mutant S73K (hPD-1 Type I mCherry, on HEK 293 cells) (from UniProt Q15116 25-168) (receptor)”, “human PD-1 mutant S73R (hPD-1 Type I mCherry, on HEK 293 cells) (from UniProt Q15116 25-168) (receptor)” is higher in average binding normalized to wild type (AVE-hPD-L2) (relative to wild type): 1 for the first, 1.11 for the second.

Compared with “human PD-1 mutant T76D (hPD-1 Type I mCherry, on HEK 293 cells) (from UniProt Q15116 25-168) (receptor)”, “human PD-1 mutant T76E (hPD-1 Type I mCherry, on HEK 293 cells) (from UniProt Q15116 25-168) (receptor)” is higher in average binding normalized to wild type (AVE-hPD-L2) (relative to wild type): 0.205 for the first, 0.642 for the second.

Going from “human PD-1 mutant T76N (hPD-1 Type I mCherry, on HEK 293 cells) (from UniProt Q15116 25-168) (receptor)” to “human PD-1 mutant T76Q (hPD-1 Type I mCherry, on HEK 293 cells) (from UniProt Q15116 25-168) (receptor)”, the average binding normalized to wild type (AVE-hPD-L2) (relative to wild type) falls from 0.998 to 0.98.

First: human PD-1 mutant T76S (hPD-1 Type I mCherry, on HEK 293 cells) (from UniProt Q15116 25-168) (receptor)
Second: human PD-1 mutant T76Y (hPD-1 Type I mCherry, on HEK 293 cells) (from UniProt Q15116 25-168) (receptor)
The average binding normalized to wild type (AVE-hPD-L2) (relative to wild type) of the first is lower: 0.954 for the first, 1.11 for the second.

Going from “human PD-1 mutant Y68K (hPD-1 Type I mCherry, on HEK 293 cells) (from UniProt Q15116 25-168) (receptor)” to “human PD-1 mutant Y68N (hPD-1 Type I mCherry, on HEK 293 cells) (from UniProt Q15116 25-168) (receptor)”, the average binding normalized to wild type (AVE-hPD-L2) (relative to wild type) rises from 0.0223 to 0.108.

Going from “human PD-1 mutant Y68Q (hPD-1 Type I mCherry, on HEK 293 cells) (from UniProt Q15116 25-168) (receptor)” to “human PD-1 mutant Y68R (hPD-1 Type I mCherry, on HEK 293 cells) (from UniProt Q15116 25-168) (receptor)”, the average binding normalized to wild type (AVE-hPD-L2) (relative to wild type) falls from 0.202 to 0.0334.

biological target: recombinant hPD-L2 hIgG1 Fc-fusion protein (R&D Systems) (human) (UniProt Q9BQ51); experiment: flow cytometry, control HEK 293 cells, one dose of hPD-L2 Fc fusion

With Control (row of Table 2) the average binding normalized to wild type (AVE-hPD-L2) (relative to wild type) was 0.00648.

biological target: recombinant hPD-L1 hIgG1 Fc-fusion protein (R&D Systems) (human) (UniProt Q9NZQ7); experiment: flow cytometry, control HEK 293 cells, one dose of hPD-L1 Fc fusion
UniProt Q9NZQ7, sequence (Q9NZQ7 19-239 limits assumed): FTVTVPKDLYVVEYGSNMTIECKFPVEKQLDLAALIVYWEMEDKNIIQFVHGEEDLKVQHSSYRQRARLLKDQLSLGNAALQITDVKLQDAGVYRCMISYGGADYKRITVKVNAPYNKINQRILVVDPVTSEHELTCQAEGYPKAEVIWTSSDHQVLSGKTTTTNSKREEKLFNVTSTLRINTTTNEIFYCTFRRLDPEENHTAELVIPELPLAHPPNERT

Control (row of Table 2) was tested, and the average binding normalized to wild type (AVE-hPD-L1) (relative to wild type) was 0.0144.
